Results reported in article PMC7379572.

What was measured:
Test in all cases: EMSA
Details in all cases: EMSA: 0.25 pmol 3'-biotin DNA, 25°C 2 h, LightShift Chemiluminescent EMSA kit buffer (composition and pH not stated), 6% DNA retardation gel, 0.5x TBE
[1] = biological target: T1, XisF5 (Pseudomonas aeruginosa PA14) (UniProt A0A0H2Z817)
T1 sequence: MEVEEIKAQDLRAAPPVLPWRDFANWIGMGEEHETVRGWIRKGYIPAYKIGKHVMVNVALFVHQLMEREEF

[2] = system: T2, XisF4 (Pseudomonas aeruginosa PAO1), ORF:74e9b1d3
T2 sequence: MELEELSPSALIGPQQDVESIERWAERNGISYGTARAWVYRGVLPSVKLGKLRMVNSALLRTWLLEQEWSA

[3] = system: T3, Pf4r (Pseudomonas aeruginosa PAO1), ORF:4ff4b857
T3 sequence: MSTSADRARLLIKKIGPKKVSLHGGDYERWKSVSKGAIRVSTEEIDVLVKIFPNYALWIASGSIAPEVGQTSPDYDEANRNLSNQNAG

| Sequence | binding [1] | binding [2] | binding [3] |
| --- | --- | --- | --- |
| CATTTGTCGCCGGAGTACCTGCGGGACGCTATTCGACTCAACCCGCTGGCGGATTTCGACAGTTCTTCGACACTTGTCGAGACGTCCTAGATTTTTCCTTTGCATATCAATAAGTTATGAGCGCTGATTCGGCTTTGCCGA (double strand) [Pf5 attL] | binds | – | – |
| CGCGGTAAAGCCTGAAAACAGAAAGCCCCTGGCACTGGTTGGTGTCAGGGGCTTTTGCATTGGGATCTGGAGCGGGCGAAGGGAATCGAACCCTCGTCATGAGCTTGGGAAGCTCAGGTAATGCCATTATACGACGCCCGCTCGGACGGCTTTTGCGGCCAGGGCGCCTTTTTACCAGATGCGCGGC (double strand) [Pf4 attB] | – | no binding | – |
| TCGATTGGGAATTCCTCGCCCCGGTGGCGATGGGCTGGGCGCTGCATCACTGGTGGACGGTGATGACGGCGCTAGCGGCGGTAGGGGTGCCGCCATGAGGGGCGGGCCGCGCCGCCGGCCGGGAGCGCAAGGCATGAGCGATAGGCCGAAGGCGCGGCCGACGCCCCTGTAACACGTCAGATAAGCCACCTATTGCGGTTTCAATTCGTACCAATTTGGATCGTTAAAG (double strand) [P4 (PA0727 promoter)] | – | binds | – |
| TGCGCTCCGCCCACCGTTCGATGGACTCCACATCCTGTTGCGGCCCTATCAGGGCACTGGGGCTAAGCTCTTCCAGTTCCATGCTCATTCCGTCACTATTCGTGGCATTAGCCATACGCAGCTAGAGAAATAATTACCCTGGAGAAATTATTTCCCCAAAGCCACGTCAGGGCAACTATTTCCCCGGAATAAATTTCTATATGAGCACGTCAGCCGATAGAGCAAGACTATT (double strand) [P1 (xisF4-pf4r intergenic region)] | – | binds | binds |
| TTCGCCGGGGTGATCGACACCAGCGCGGTGGAATCGGCGATCACCGATGGCCAGGGCGATATGAAGGCCATTGGCGGCTACATCGTCGGCGCCCTGGTGATCCTGGCCGTTGCCGGCCTGATCTACAGCATGTTGCGCAAGGCGTAACGGGTGCTCTGGTCGGTGTGGTTGGGGGCGTTCTTCGCCGGCGCCTTCATCACCGGGTACCGGACCGGCGAATTCTTCTAACCGAACAGACCGAGGCGGAAGCCCCCTCCGGAGTTTCCGGCAGGGGGCTTTTTTGTGTGGGGTCTTACG (double strand) [P3 (PA0724 promoter)] | – | no binding | – |
